According to publication PMC6504948:

Target: CD19 on CD19-positive tumor cells (Nalm6, Raji) (human (endogenous in Nalm6 and Raji)) (UniProt P15391)
UniProt P15391, sequence (P15391 20-556): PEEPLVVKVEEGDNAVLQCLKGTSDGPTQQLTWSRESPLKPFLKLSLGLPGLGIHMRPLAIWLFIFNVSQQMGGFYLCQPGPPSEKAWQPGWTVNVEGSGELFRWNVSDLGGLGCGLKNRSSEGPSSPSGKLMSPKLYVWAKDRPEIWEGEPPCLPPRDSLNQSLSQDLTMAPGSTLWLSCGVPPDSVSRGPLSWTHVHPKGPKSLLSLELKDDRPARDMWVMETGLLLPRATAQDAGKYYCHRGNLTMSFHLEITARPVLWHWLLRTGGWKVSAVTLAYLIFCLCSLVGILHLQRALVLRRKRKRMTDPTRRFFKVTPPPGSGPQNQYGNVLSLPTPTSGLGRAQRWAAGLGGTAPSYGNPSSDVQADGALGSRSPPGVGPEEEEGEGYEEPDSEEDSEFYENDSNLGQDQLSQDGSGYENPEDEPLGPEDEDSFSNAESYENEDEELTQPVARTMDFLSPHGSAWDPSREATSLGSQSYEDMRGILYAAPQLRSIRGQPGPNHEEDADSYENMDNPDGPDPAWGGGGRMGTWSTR

## γ-TRuC (CD19-specific T cell receptor fusion construct: FMC63 scFv fused to full-length human CD3γ) (from UniProt P09693 23-182)
  conversion of transduced primary T cells into a CD69+/CD25+ phenotype after overnight co-culture with Nalm6 cells: 50%
